These results are taken from patent US20060134087A1, “ITI-D1 Kunitz domain mutants as hNE inhibitors” (Dyax Corp., priority 1988, published 2006).

For data set [1], the target named is T1, hNE (Homo sapiens, UniProt P08246).
T1 sequence (P08246 30-267): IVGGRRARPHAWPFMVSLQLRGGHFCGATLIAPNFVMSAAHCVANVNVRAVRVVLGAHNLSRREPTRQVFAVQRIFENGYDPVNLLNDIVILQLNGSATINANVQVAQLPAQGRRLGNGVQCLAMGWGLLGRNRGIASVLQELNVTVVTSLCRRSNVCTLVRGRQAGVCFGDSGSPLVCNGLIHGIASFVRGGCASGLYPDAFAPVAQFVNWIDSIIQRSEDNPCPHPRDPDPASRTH
As to the kind of experiment: Kinetic on-rate of inhibitors reacting with hNE (progressive inhibition). It counts as biochemical. How it is done:
The kinetic on-rates for the inhibitors reacting with hNE (kon) were determined from measurements of progressive inhibition of substrate hydrolytic activity by hNE following addition of inhibitor. For these experiments, a known concentration of inhibitor was added to a solution of hNE (0.847 nM) and substrate (25 μM) in 2 ml of reaction buffer in a plastic fluorescence cuvette. The change in fluorescence was recorded continuously following addition of the inhibitor. […] The enzymatic rate at selected times following addition of the inhibitor was determined from the slope of the tangent to the fluorescence time course at that time.
The kinetic constant kon for EPI-HNE-2 reacting with hNE was determined as follows. EPI-HNE-2 at 1.3 nM was added to buffer containing 0.867 nM hNE (I:E=1.5:1) at time 0. Measured percent residual activity was recorded as a function of time after addition of inhibitor. A least-squares fit program was used to obtain the value of kon=4.0×10^6 M^−1s^−1.
The kinetic off rate, koff, is calculated from the measured values of Ki and kon as: […] The values from such measurements are included in Table 30. The EPI-HNE proteins are small, high affinity, fast acting inhibitors of hNE. B. Specificity.

Data set [2] deals with T1, hNE. As to the kind of experiment: Resistance to oxidative inactivation by Chloramine-T, residual hNE-inhibition activity. It counts as physicochemical. Conditions: 20 minutes at RT. How it is done: At the end of the incubation period, the oxidation reactions were quenched by adding methionine to a final concentration of 4 mM. After a further 10 minute incubation, the quenched reactions were diluted and assayed for residual inhibitor activity in our standard hNE-inhibition assay.
Inhibitors were incubated in the presence of Chloramine-T at the molar ratios indicated for 20 minutes at RT. Oxidation reactions were quenched by adding methionine to a final concentration of 4 mM. Residual hNE-inhibition activity remaining in the quenched reactions is shown as a percentage of the activity observed with no added oxidant.

Data set [3] has as its target T1, hNE. In words: pH stability, residual hNE inhibitory activity. It counts as physicochemical. Particulars: 37° C., 18 hours; for Percent Residual hNE Inhibitory Activity: 1 μM protein. How it is done:
The stability of the proteins to exposure to pH conditions in the range of pH 1 to pH 10 was assessed by maintaining the inhibitors in buffers of defined pH at 37° C. for 18 hours and determining the residual hNE inhibitory activity in the standard hNE-inhibition assay. Proteins were incubated at a concentration of 1 μM. The buffers shown in Table 4 were formulated as described (STOL90) and used in the pH ranges indicated: […]
Proteins were incubated at 37° C. for 18 hours in buffers of defined pH (see text). In all cases protein concentrations were 1 μM. At the end of the incubation period, aliquots of the reactions were diluted and residual hNE-inhibition activity determined.

Data set [4] concerns the target T1, hNE. In words: Temperature stability, residual inhibitory activity for hNE. It counts as physicochemical. Particulars: for Residual hNE Inhibitory Activity: 18 hours, pH 7.0, 1 μM protein. The method, then:
The stability of EPI-HNE proteins to temperatures in the range 0° C. to 95° C. was assessed by incubating the inhibitors for thirty minutes at various temperatures and determining residual inhibitory activity for hNE. In these experiments, protein concentrations were 1 μM in phosphate buffer at pH=7. As is shown in Table 40, the four inhibitors are quite temperature stable.
Proteins were incubated at the stated temperature for 18 hours in buffer at pH 7.0. In all cases protein concentrations were 1 μM. At the end of the incubation period, aliquots of the reactions were diluted and residual hNE-inhibition activity determined.

In data set [5] the target is T2, agarose-immobilized hNE beads (Homo sapiens, UniProt P08246).
T2 sequence (P08246 30-267): T1 sequence (P08246 30-267)
In words: pH fractionation of display phage on agarose-immobilized hNE beads. Also on record: Fraction of Input recovered at pH7.0: scale not given here. The data set is classed as binding. An excerpt: For the purpose of simultaneously assessing the affinity of a large number of different BPTI and ITI-D1 muteins, DNA sequences encoding the BPTI or ITI-D1 was incorporated into the genome of the bacteriophage M13. […] Alterations in the KuDom amino acid sequence were introduced. Each pure population of phage displaying a particular KuDom was characterized with regard to its interactions with immobilized hNE or hCG. Based on comparison to the pH elution profiles of phage displaying other KuDoms of known affinities for the particular protease, mutant KuDoms having high affinity for the target proteases were identified. Subsequently, the sequences of these mutant KuDoms were determined (typically by sequencing the corresponding DNA sequence).
To test if phage displaying the ITI-D1::III fusion protein interact strongly with the proteases human neutrophil elastase (hNE), aliquots of display phage were incubated with agarose-immobilized hNE beads (“hNE beads”). The beads were washed and bound phage eluted by pH fractionation as described in U.S. Pat. No. 5,223,409. The pHs used in the step gradient were 7.0, 6.0, 5.5, 5.0, 4.5, 4.0, 3.5, 3.0, 2.5, and 2.0. Following elution and neutralization, the various input, wash, and pH elution fractions were titered. Phage displaying ITI-D1 were compared to phage that display EpiNE-7.
To test if ITI-D1E7-display phage bind hNE beads, pH elution profiles were measured. Aliquots of EpiNE-7, MA-ITI-D1, and MA-ITI-D1E7 display phage were incubated with hNE beads for three hours at room temperature (RT). The beads were washed and phage were eluted as described in U.S. Pat. No. 5,223,409, except that only three pH elutions were performed. […] The pH elution profile of EpiNE-7 display phage is as described. MA-ITI-D1E7 phage show a broad elution maximum around pH 5. The total fraction of MA-ITI-D1E7 phage obtained on pH elution from hNE beads was about 40-fold less than that obtained using EpiNE-7 display phage.
We characterized the binding properties to hNE-beads of MA-BITI and MA-BITI-E7 display phage using the extended pH fractionation procedure described in U.S. Pat. No. 5,223,409.
The binding capacity of hNE-beads for display phage varies among preparations of beads and with age for each individual preparation of beads. Thus, it is difficult to directly compare absolute yields of phage from elutions performed at different times. For example, the fraction of MA-EpiNE7 display phage recovered from hNE-beads varies two-fold among the experiments shown in Tables 14, 16, and 17. However, the shapes of the pH elution profiles are similar. It is possible to correct somewhat for variations in binding capacity of hNE-beads by normalizing display phage yields to the total yield of MA-EpiNE7 phage recovered from the beads in a concurrent elution. When the data shown in Tables 14, 16, and 17 are so normalized, the recoveries of display phage, relative to recovered MA-EpiNE7, are shown in Table 3.
ITI-D1 derivative BITI-E7-1222 is BITI-E7 with the alteration A11T. ITI-D1 derivative BITI-E7-141 is BITI-E7 with the alterations E31Q and Q34V; phage that display the presence of these proteins are MA-BITI-E7-1222 and MA-BITI-E7-141. We determined the binding properties to hNE-beads of MA-BITI-E7-1222 and MA-BITI-E7-141 display phage using the extended pH fractionation protocol described previously. The results are in Tables 18 (for MA-BITI-E7 and MA-BITI-E7-1222) and 19 (for MA-EpiNE7 and MA-BITI-E7-141). The pH elution profiles for the MA-BITI-E7 and MA-BITI-E7-1222 phage are almost identical.
Total pfu applied to the beads are in column two. The fractions of this input pfu recovered in each pH fraction of the abbreviated pH elution protocol (pH 7.0, pH 3.5, and pH 2.0) are in the next three columns. […]

[6] abbreviates: AE abbreviated pH elution protocol.

Consider “EPI-HNE-1: BPTI-derived Kunitz domain, SEQ ID NO 007; K15I, R17F, I18F, I19P, R39M, A40G, K41N, R42G”, for which the kon with hNE [1] ([hNE] = 8.47 × 10^−10 molar) is on record as 3.7 10^6/M/s. The koff in the data set with hNE [1] (calculated from koff = KD × kon) is reported as 7.4 10^−6/s. Moreover, the “Percent Residual hNE-Inhibitory Activity” value with hNE [2] (Molar Ratio CHL-T:Inhibitor 0) is given as 100%; in the data set with hNE [2] (Molar Ratio CHL-T:Inhibitor 1.4), 98%; in the data set with hNE [2] (Molar Ratio CHL-T:Inhibitor 1.9), 102%; with hNE [2] (Molar Ratio CHL-T:Inhibitor 3.8), 94%; in the data set with hNE [2] (Molar Ratio CHL-T:Inhibitor 9.5), 95%; with hNE [2] (Molar Ratio CHL-T:Inhibitor 19.), 92%. In addition, the “Percent Residual hNE-Inhibitory Activity” value with hNE [2] (Molar Ratio CHL-T:Inhibitor .48) is 102%; with hNE [2] (Molar Ratio CHL-T:Inhibitor .95), 100%. In addition, the “pH stability” value with hNE [3] (pH 1 to pH 10, 1 μM) is reported as “stable at all pH values tested”. Besides, the “Percent Residual hNE Inhibitory Activity” value is 102% with hNE [3] (Incubation pH 1.0); 100% with hNE [3] (Incubation pH 2.0); 101% with hNE [3] (Incubation pH 2.6); 100% with hNE [3] (Incubation pH 3.0); 98% in the data set with hNE [3] (Incubation pH 4.0); 100% with hNE [3] (Incubation pH 5.0). The “Percent Residual hNE Inhibitory Activity” value with hNE [3] (Incubation pH 6.0) is on record as 100%; with hNE [3] (Incubation pH 7.0), 93%; with hNE [3] (Incubation pH 8.0), 96%; with hNE [3] (Incubation pH 9.4) it was 100%; with hNE [3] (Incubation pH 10.0) it was 98%. The “Residual hNE Inhibitory Activity” value with hNE [4] (Temperature 0 ° C.) came out at 97; with hNE [4] (Temperature 23 ° C.) it was 100; in the data set with hNE [4] (Temperature 37 ° C.), 100; with hNE [4] (Temperature 45 ° C.), 103; with hNE [4] (Temperature 55 ° C.), 99; with hNE [4] (Temperature 65 ° C.) it was 94. For the same substance, the figures for the “Residual hNE Inhibitory Activity” value in the data set with hNE [4] (Temperature 75 ° C.), in the data set with hNE [4] (Temperature 85 ° C.) and with hNE [4] (Temperature 95 ° C.) were 100, 106 and 64, respectively. The “temperature below which full inhibitory activity is maintained” value in the data set with hNE [4] (thirty minutes, 1 μM, phosphate buffer pH=7) was “below 90 °C”.

As to “AMINO2: ITI-D1 derivative carrying K1-S4, SEQ ID NO 023 (KPDSCQLGYSAGPCVAMFPRYFYNGTSMACETFQYGGCMGNGNNFVTEKDCLQTCRGA; AMINO2)”, in data set [5] (setting [6]), the “Fraction of Input recovered at pH2.0” value is on record as 0.45 ×10^−4, the “Fraction of Input recovered at pH3.5” value is on record as 2.1 ×10^−4 and the “Fraction of Input recovered at pH7.0” value turned out to be 0.57. In data set [5] (AE, total fraction of input), the “Recovery Total” value is on record as 3.1 ×10^−4. For the same substance, the “reduction of display phage binding to hNE-beads” value in data set [5] (relative to parental MA-BITI-E7-141) is recorded as “at least ten fold”.
